Measured values from the RNAGym collection of RNA variant scans (doi:10.7554/elife.80360).

B1: Hammerhead Ribozyme (parent)
chain: ACCGGAUGUGCUUUCCGGUCUGAUGAGUCCGUGAGGACGAAACAG

Variants of: B1
Assay: self-cleavage, relative activity (ratio to wild type); higher = more cleavage; co-transcriptional

Row | Variant | self-cleavage
1 | ACCGGAUGUGCUUUCCGGUCUGAAGAGUCCGUGAAGACGAAACAG [U24A G35A] | 0.873
2 | ACCGGAUGUGCUUUCCGGUCUGAAGAGUCCGUGAUGACGAAACAG [U24A G35U] | 0.791
3 | ACCGGAUGUGCUUUCCGGUCUGAAGAGUCCGUGACGACGAAACAG [U24A G35C] | 0.851
4 | ACCGGAUGUGCUUUCCGGUCUGACGAGUCCGUGAGGACAAAACAG [U24C G39A] | 0.337
5 | ACCGGAUGUGCUUUCCGGUCUGACGAGUCCGUGAGGACCAAACAG [U24C G39C] | 0.352
6 | ACCGGAUGUGCUUUCCGGUCUGAAGAGUCCGUGAGGACGAUACAG [U24A A41U] | 0.279
7 | ACCGGAUGUGCUUUCCGGUCUGAAGAGUCCGUGAGGACGACACAG [U24A A41C] | 0.371
8 | ACCGGAUGUGCUUUCCGGUCUGAAGAGUCCGUGAGGACGAGACAG [U24A A41G] | 0.473
9 | ACCGGAUGUGCUUUCCGGUCUGACGAGUCCGUGAGGUCGAAACAG [U24C A37U] | 0.768
10 | ACCGGAUGUGCUUUCCGGUCUGACGAGUCCGUGAGGCCGAAACAG [U24C A37C] | 1.02
11 | ACCGGAUGUGCUUUCCGGUCUGACGAGUCCGUGAGGGCGAAACAG [U24C A37G] | 0.9
12 | ACCGGAUGUGCUUUCCGGUCUGACGAGUCCGUGAGGACGAAACAG [U24C] | 0.959
13 | ACCGGAUGUGCUUUCCGGUCUGAAGAGUCCGUGAGGACGAAACAU [U24A G45U] | 0.832
14 | ACCGGAUGUGCUUUCCGGUCUGAAGAGUCCGUGAGGACGAAACAA [U24A G45A] | 0.75
15 | ACCGGAUGUGCUUUCCGGUCUGAAGAGUCCGUGAGGACGAAACAC [U24A G45C] | 0.639
16 | ACCGGAUGUGCUUUCCGGUCUGAAGAGUCCAUGAGGACGAAACAG [U24A G31A] | 1.15
17 | ACCGGAUGUGCUUUCCGGUCUGAAGAGUCCCUGAGGACGAAACAG [U24A G31C] | 0.814
18 | ACCGGAUGUGCUUUCCGGUCUGAAGAGUCCUUGAGGACGAAACAG [U24A G31U] | 0.927
19 | ACCGGAUGUGCUUUCCGGUCUGACGAGUCCCUGAGGACGAAACAG [U24C G31C] | 1.02

Row | Variant | self-cleavage
20 | ACCGGAUGUGCUUUCCGGUCUGACGAGUCCUUGAGGACGAAACAG [U24C G31U] | 0.982
21 | ACCGGAUGUGCUUUCCGGUCUGACGAGUCCAUGAGGACGAAACAG [U24C G31A] | 0.924
22 | ACCGGAUGUGCUUUCCGGUCUGACGAGUCAGUGAGGACGAAACAG [U24C C30A] | 0.904
23 | ACCGGAUGUGCUUUCCGGUCUGACGAGUCUGUGAGGACGAAACAG [U24C C30U] | 1.14
24 | ACCGGAUGUGCUUUCCGGUCUGACGAGUCGGUGAGGACGAAACAG [U24C C30G] | 0.613
25 | ACCGGAUGUGCUUUCCGGUCUGACGUGUCCGUGAGGACGAAACAG [U24C A26U] | 0.559
26 | ACCGGAUGUGCUUUCCGGUCUGACGCGUCCGUGAGGACGAAACAG [U24C A26C] | 0.609
27 | ACCGGAUGUGCUUUCCGGUCUGACGGGUCCGUGAGGACGAAACAG [U24C A26G] | 0.401
28 | ACCGGAUGUGCUUUCCGGUCUGAAGAGUCCGCGAGGACGAAACAG [U24A U32C] | 0.569
29 | ACCGGAUGUGCUUUCCGGUCUGAAGAGUCCGAGAGGACGAAACAG [U24A U32A] | 0.859
30 | ACCGGAUGUGCUUUCCGGUCUGAAGAGUCCGGGAGGACGAAACAG [U24A U32G] | 0.644
31 | ACCGGAUGUGCUUUCCGGUCUGAACAGUCCGUGAGGACGAAACAG [U24A G25C] | 0.366
32 | ACCGGAUGUGCUUUCCGGUCUGAAAAGUCCGUGAGGACGAAACAG [U24A G25A] | 0.243
33 | ACCGGAUGUGCUUUCCGGUCUGAAUAGUCCGUGAGGACGAAACAG [U24A G25U] | 0.282
34 | ACCGGAUGUGCUUUCCGGUCUGAAGAGUCCGUGAGGACGAACCAG [U24A A42C] | 0.363
35 | ACCGGAUGUGCUUUCCGGUCUGAAGAGUCCGUGAGGACGAAGCAG [U24A A42G] | 0.24
36 | ACCGGAUGUGCUUUCCGGUCUGAAGAGUCCGUGAGGACGAAUCAG [U24A A42U] | 0.354
37 | ACCGGAUGUGCUUUCCGGUCUGAAGAGACCGUGAGGACGAAACAG [U24A U28A] | 0.729
38 | ACCGGAUGUGCUUUCCGGUCUGAAGAGCCCGUGAGGACGAAACAG [U24A U28C] | 1.27

Row | Variant | self-cleavage
39 | ACCGGAUGUGCUUUCCGGUCUGAAGAGGCCGUGAGGACGAAACAG [U24A U28G] | 0.694
40 | ACCGGAUGUGCUUUCCGGUCUGACGAGUCCGUGAGGACGAAACCG [U24C A44C] | 0.503
41 | ACCGGAUGUGCUUUCCGGUCUGACGAGUCCGUGAGGACGAAACGG [U24C A44G] | 1.18
42 | ACCGGAUGUGCUUUCCGGUCUGACGAGUCCGUGAGGACGAAACUG [U24C A44U] | 0.542
43 | ACCGGAUGUGCUUUCCGGUCUGACGAGUCCGUAAGGACGAAACAG [U24C G33A] | 1.36
44 | ACCGGAUGUGCUUUCCGGUCUGACGAGUCCGUUAGGACGAAACAG [U24C G33U] | 0.854
45 | ACCGGAUGUGCUUUCCGGUCUGACGAGUCCGUCAGGACGAAACAG [U24C G33C] | 1.15
46 | ACCGGAUGUGCUUUCCGGUCUGACGAGUCCGUGAGGACGAGACAG [U24C A41G] | 0.358
47 | ACCGGAUGUGCUUUCCGGUCUGACGAGUCCGUGAGGACGAUACAG [U24C A41U] | 0.408
48 | ACCGGAUGUGCUUUCCGGUCUGACGAGUCCGUGAGGACGACACAG [U24C A41C] | 0.305
49 | ACCGGAUGUGCUUUCCGGUCUGAAGAGUCCGUCAGGACGAAACAG [U24A G33C] | 1.21
50 | ACCGGAUGUGCUUUCCGGUCUGAAGAGUCCGUUAGGACGAAACAG [U24A G33U] | 0.78
51 | ACCGGAUGUGCUUUCCGGUCUGAAGAGUCCGUAAGGACGAAACAG [U24A G33A] | 1
52 | ACCGGAUGUGCUUUCCGGUCUGACGAGUCCGUGAGGACGAAUCAG [U24C A42U] | 0.286
53 | ACCGGAUGUGCUUUCCGGUCUGACGAGUCCGUGAGGACGAAGCAG [U24C A42G] | 0.228
54 | ACCGGAUGUGCUUUCCGGUCUGACGAGUCCGUGAGGACGAACCAG [U24C A42C] | 0.316
55 | ACCGGAUGUGCUUUCCGGUCUGAAGAAUCCGUGAGGACGAAACAG [U24A G27A] | 0.7
56 | ACCGGAUGUGCUUUCCGGUCUGAAGACUCCGUGAGGACGAAACAG [U24A G27C] | 0.685
57 | ACCGGAUGUGCUUUCCGGUCUGAAGAUUCCGUGAGGACGAAACAG [U24A G27U] | 0.508
